Experimental data published in PMC10127577 (Journal of Bacteriology, 2023).

T1: cleaved, mature CDTb (from limited trypsinization of proCDTb) (Clostridioides difficile)
T1 chain: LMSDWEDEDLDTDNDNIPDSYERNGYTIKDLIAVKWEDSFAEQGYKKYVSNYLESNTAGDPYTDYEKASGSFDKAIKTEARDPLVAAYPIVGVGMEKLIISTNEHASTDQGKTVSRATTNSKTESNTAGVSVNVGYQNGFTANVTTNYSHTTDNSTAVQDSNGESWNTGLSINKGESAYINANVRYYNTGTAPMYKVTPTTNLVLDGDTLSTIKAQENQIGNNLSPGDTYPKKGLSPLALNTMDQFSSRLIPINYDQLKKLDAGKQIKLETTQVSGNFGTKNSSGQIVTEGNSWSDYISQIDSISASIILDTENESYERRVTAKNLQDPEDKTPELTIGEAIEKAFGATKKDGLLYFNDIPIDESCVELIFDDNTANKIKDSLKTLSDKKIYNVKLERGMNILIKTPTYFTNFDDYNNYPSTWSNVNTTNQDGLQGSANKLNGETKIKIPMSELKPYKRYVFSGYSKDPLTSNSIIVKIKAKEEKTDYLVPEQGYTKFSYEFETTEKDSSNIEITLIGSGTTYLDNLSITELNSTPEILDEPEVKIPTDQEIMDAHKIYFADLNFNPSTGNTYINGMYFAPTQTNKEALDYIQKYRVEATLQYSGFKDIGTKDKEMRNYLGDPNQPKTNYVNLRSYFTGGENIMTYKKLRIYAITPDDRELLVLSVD


How the values were obtained:
[1] = target: T2, CDTb protoxin (proCDTb), CDTb residues 43 to 876 (Clostridioides difficile, UniProt O32739); assay: SPR; proCDTb with C-terminal 6xHis immobilised (~200 RU) on NTA chip, Biacore X100; Fab flowed at 0.1-25 nM; 10 mM HEPES pH 8.0, 150 mM NaCl, 6 mM CaCl2, 0.05% Tween 20; association 180 s, dissociation 600 s; 1:1 binding model; conditions: both partners purified
T2 construct: pET24b construct for biophysical and structural studies; A different construct (pGEX-6p1, GST cleaved, C-terminal 6xHis) was used for immunisation and the neutralisation assay; also called proCTDb; source: E. coli BL21(DE3), purified (Ni-NTA, anion exchange, SEC); not shown: His6, C-terminal, kept

[2] = target: T3, CDTb D4 fragment, CDTb residues 753 to 876 (Clostridioides difficile, UniProt O32739); assay: BLI; conditions: both partners purified
T3 construct: pET22b construct; source: E. coli BL21(DE3), purified (Ni-NTA, SEC); not shown: His6, C-terminal, kept

[3] = target: T1, cleaved, mature CDTb (from limited …); assay: cell-based or functional assay
[4] = target: T3, CDTb D4 fragment, CDTb residues 753 to …; assay: crystal structure; conditions: both partners purified

Binder	Kd [1] [nM]	binding result [2]	EC50 of protection of HT29 cells from CDT (CDTa 25 ng/mL + cleaved, monomeric CDTb 75 ng/mL) cytotoxicity, Hoechst-stained surface, BINTOXB/22 IgG; blocks CDTb oligomerization (m7 with m7) [3] [µg/mL]	binding result [4]	EC50 of protection of HT29 cells from CDT (CDTa 25 ng/mL + cleaved, monomeric CDTb 75 ng/mL) cytotoxicity, Hoechst-stained surface, BINTOXB/9 IgG; blocks CDTb oligomerization (m7 with m7) [3] [µg/mL]
BINTOXB/22 Fab (Fab, V domains shown) VH: QIQLVQSGPELKKPGETVKISCKASGYTFTNYGMNWVKQAPGKDLKWMGWMSTYTGEPTYADDFKGRFAFSLETSASTAYLQINNLKNEDMATYFCARRGNYLSFDYWGQGTTLTVSS VL: DIVMTQSHKFMSTSVGDRVSITCKASQDVSTAVGWYQQKPGQSPKLLIYSASYRYTGVPDRFTGSGSGTDFTFTISSVQAEDLAVYYCQQHYSPPFTFGSGTELEIK	16.3	no binding (tested: 200 nM)	21	–	–
BINTOXB/9 Fab (Fab, V domains shown) VH: QVQLQQSGAELARPGASVKMSCKASGYTFTSYTMHWVKQRPGQGLEWIGYINPSNDYTSYNQKFKDKATLTADKSSSTAYMQLSSLTSEDSAVYYCARCWGYDPYYFDYWGQGTTLTVSS VL: DIVMSQSPSLLAVSAGEKVTMSCKSSQSLLNSRTRKNYLAWYQQKPGQSPKVLIYWASTRESGVPDRFTGSGSGTDFTLTISSVQAEDLAVYYCKQSYNLLTFGAGTKLELK	0.73	–	–	binds	13
